The values that follow come from patent US20190159997A1, “COMPOSITIONS COMPRISING POLYESTERS OF BIOLOGICAL ORIGIN AND BIOCOMPATIBLE INORGANIC COMPOUNDS, AND USES THEREOF IN THE COSMETIC FIELD” (BIO-ON S.p.A., priority 2016, published 2019).

This assay deals with Streptococcus mutans ATCC 35668. The assay can be described thus: antibacterial effectiveness by bacterial count on Petri plates. It is filed as cell-based. Particulars: growth of Streptococcus mutans ATCC 35668. As to the method: Following the same procedure described in Example 4, two compositions of lactoferrin, hydroxyapatite and PHA were prepared, using solutions of lactoferrin with concentrations equal to 60 mg/ml and 80 mg/ml, and the same aqueous suspensions of HA and PHA used in Example (weight ratio between lactoferrin and mixture of HA+PHA equal to 1:1). The antibacterial effectiveness of these compositions was assessed, by means of bacterial count on Petri plates with respect to the growth of Streptococcus mutans ATCC 35668.

B1: lactoferrin (protein, UniProt P02788 20-710, looked up)
Lactotransferrin: GRRRSVQWCAVSQPEATKCFQWQRNMRKVRGPPVSCIKRDSPIQCIQAIAENRADAVTLDGGFIYEAGLAPYKLRPVAAEVYGTERQPRTHYYAVAVVKKGGSFQLNELQGLKSCHTGLRRTAGWNVPIGTLRPFLNWTGPPEPIEAAVARFFSASCVPGADKGQFPNLCRLCAGTGENKCAFSSQEPYFSYSGAFKCLRDGAGDVAFIRESTVFEDLSDEAERDEYELLCPDNTRKPVDKFKDCHLARVPSHAVVARSVNGKEDAIWNLLRQAQEKFGKDKSPKFQLFGSPSGQKDLLFKDSAIGFSRVPPRIDSGLYLGSGYFTAIQNLRKSEEEVAARRARVVWCAVGEQELRKCNQWSGLSEGSVTCSSASTTEDCIALVLKGEADAMSLDGGYVYTAGKCGLVPVLAENYKSQQSSDPDPNCVDRPVEGYLAVAVVRRSDTSLTWNSVKGKKSCHTAVDRTAGWNIPMGLLFNQTGSCKFDEYFSQSCAPGSDPRSNLCALCIGDEQGENKCVPNSNERYYGYTGAFRCLAENAGDVAFVKDVTVLQNTDGNNNEAWAKDLKLADFALLCLDGKRKPVTEARSCHLAMAPNHAVVSRMDKVERLKQVLLHQQAKFGRNGSDCPDKFCLFQSETKNLLFNDNTECLARLHGKTTYEKYLGPQYVAGITNLKKCSTSPLLEACEFLRK
notes: lactoferrin alone, aqueous solution with a concentration of 60 mg/ml and 80 mg/ml; protein having an antioxidizing action
Consider B1, for which the “Reduction bacterial growth (%)” value by setting is: (lactoferrin solution 60 mg/ml) 30%; (lactoferrin solution 80 mg/ml) 35%.
